Here are results for one molecule from publication PMC12212138, “Crystal structure and mutagenesis of a nucleic acid–binding BRCT domain in human PARP4”.

Details in all cases: protein: recombinant; tags: N-terminal His-SUMO removed by TEV; label: 5'-6-FAM; predicted intramolecular fold
The target of data set [1] is T1, PARP4 BRCT-WGR-CAT K23/24Q (human, UniProt Q9UKK3 1-573, K23Q;K24Q).
T1 sequence: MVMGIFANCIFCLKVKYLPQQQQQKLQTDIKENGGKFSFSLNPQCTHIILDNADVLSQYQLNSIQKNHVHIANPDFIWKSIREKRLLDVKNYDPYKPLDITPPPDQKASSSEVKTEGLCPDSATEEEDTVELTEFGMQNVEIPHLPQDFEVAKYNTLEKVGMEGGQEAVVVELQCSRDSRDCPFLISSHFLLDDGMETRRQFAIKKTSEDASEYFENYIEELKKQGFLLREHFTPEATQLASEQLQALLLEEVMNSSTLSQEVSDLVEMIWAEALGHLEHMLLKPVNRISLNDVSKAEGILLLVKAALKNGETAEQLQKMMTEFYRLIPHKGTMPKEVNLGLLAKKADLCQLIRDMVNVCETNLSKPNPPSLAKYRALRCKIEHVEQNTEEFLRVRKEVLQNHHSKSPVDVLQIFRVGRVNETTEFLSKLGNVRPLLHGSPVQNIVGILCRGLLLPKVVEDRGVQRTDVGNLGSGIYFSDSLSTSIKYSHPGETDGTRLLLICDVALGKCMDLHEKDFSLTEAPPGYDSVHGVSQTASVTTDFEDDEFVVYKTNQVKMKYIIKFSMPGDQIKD
In words: FP; 3 nM probe; FP: 50 mM Tris pH 7.5, 50 mM NaCl, 1 mM MgCl2, 0.05% NP40, 2 mM DTT, 5% glycerol, 25 ug/ml BSA, room temp 30 min; EMSA: 50 mM Tris pH 7.5, 50 mM NaCl, 4% Ficoll PM400, 0.05% NP40, 2 mM DTT, 0-18 uM protein, room temp 30 min, gel at 4 C.

The target of data set [2] is T2, PARP4 BRCT F39Q (human, UniProt Q9UKK3 1-100, F39Q).
T2 sequence: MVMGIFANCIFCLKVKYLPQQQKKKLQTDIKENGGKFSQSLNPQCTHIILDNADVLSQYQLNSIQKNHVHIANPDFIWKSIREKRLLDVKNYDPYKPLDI
The description is as above.

Data set [3] deals with T3, PARP4 BRCT K31Q (human, UniProt Q9UKK3 1-100, K31Q).
T3 sequence: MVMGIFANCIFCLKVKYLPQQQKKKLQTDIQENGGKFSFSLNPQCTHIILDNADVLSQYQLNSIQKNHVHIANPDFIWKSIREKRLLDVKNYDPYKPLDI
The data set is described as above.

The target in data set [4] is T4, PARP4 BRCT-WGR-CAT WT (human, UniProt Q9UKK3 1-573).
T4 sequence: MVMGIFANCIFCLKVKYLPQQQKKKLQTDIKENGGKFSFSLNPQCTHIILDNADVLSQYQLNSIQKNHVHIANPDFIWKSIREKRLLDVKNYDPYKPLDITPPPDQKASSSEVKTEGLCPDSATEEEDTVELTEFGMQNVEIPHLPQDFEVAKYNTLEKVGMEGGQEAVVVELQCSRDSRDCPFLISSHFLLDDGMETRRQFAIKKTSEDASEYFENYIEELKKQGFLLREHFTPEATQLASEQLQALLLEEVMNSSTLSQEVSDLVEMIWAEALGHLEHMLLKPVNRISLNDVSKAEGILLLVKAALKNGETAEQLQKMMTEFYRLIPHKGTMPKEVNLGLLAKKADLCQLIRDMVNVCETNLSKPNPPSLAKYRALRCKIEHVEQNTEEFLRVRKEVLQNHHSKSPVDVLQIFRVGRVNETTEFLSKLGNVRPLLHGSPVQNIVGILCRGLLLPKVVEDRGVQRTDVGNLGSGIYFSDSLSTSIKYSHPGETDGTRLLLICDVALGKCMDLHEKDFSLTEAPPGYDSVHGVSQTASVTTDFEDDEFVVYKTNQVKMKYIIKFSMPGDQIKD
In words: FP; 3 or 15 nM probe; FP: 50 mM Tris pH 7.5, 50 mM NaCl, 1 mM MgCl2, 0.05% NP40, 2 mM DTT, 5% glycerol, 25 ug/ml BSA, room temp 30 min; EMSA: 50 mM Tris pH 7.5, 50 mM NaCl, 4% Ficoll PM400, 0.05% NP40, 2 mM DTT, 0-18 uM protein, room temp 30 min, gel at 4 C. For orientation: Mobility shift assays separate free from complexed probe on a gel.

Data set [5] addresses T1, PARP4 BRCT-WGR-CAT K23/24Q. The data set can be described thus: EMSA; 20 nM probe; rough estimate; FP: 50 mM Tris pH 7.5, 50 mM NaCl, 1 mM MgCl2, 0.05% NP40, 2 mM DTT, 5% glycerol, 25 ug/ml BSA, room temp 30 min; EMSA: 50 mM Tris pH 7.5, 50 mM NaCl, 4% Ficoll PM400, 0.05% NP40, 2 mM DTT, 0-18 uM protein, room temp 30 min, gel at 4 C.
The target in data set [6] is T5, PARP4 BRCT WT (human, UniProt Q9UKK3 1-100).
T5 sequence: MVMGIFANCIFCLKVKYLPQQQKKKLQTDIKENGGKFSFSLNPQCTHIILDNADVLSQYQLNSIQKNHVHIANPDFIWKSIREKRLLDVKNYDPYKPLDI
The data set can be described thus: FP; 30 nM probe, probe concentration comparison; FP: 50 mM Tris pH 7.5, 50 mM NaCl, 1 mM MgCl2, 0.05% NP40, 2 mM DTT, 5% glycerol, 25 ug/ml BSA, room temp 30 min; EMSA: 50 mM Tris pH 7.5, 50 mM NaCl, 4% Ficoll PM400, 0.05% NP40, 2 mM DTT, 0-18 uM protein, room temp 30 min, gel at 4 C.

B1: vtRNA1-3 (structured_RNA)
RNA: GGCUGGCUUUAGCUCAGCGGUUACUUCGCGUGUCAUCAAACCACCUCUCUGGGUUGUUCGAGACCCGCGGGCGCUCUCCAGCCCUCUU
With B1, the dissociation constant (Kd) (usually the free concentration of one partner at which half of the binding sites on the other are occupied at equilibrium, for simple one-to-one binding) is 71 ± 26 µM in data set [1]; 35 ± 10 µM in data set [2]; 61 ± 12 µM in data set [3]; 27 ± 9 µM in data set [4]; about 54 µM in data set [5]; 18 ± 3 µM in data set [6].
